This note sets out measurements from US20060193849A1.

The assay has as its target MUC-1 gene product, the membrane mucin glycoprotein (polymorphic epithelial mucin or PEM) (human) (UniProt P15941). Briefly: flow cytometry equilibrium binding on MCF7 cells. Conditions: scFv.

Chain of MUC-1 gene product, the membrane mucin glycoprotein (polymorphic epithelial mucin or PEM) (human) (P15941 24-1255): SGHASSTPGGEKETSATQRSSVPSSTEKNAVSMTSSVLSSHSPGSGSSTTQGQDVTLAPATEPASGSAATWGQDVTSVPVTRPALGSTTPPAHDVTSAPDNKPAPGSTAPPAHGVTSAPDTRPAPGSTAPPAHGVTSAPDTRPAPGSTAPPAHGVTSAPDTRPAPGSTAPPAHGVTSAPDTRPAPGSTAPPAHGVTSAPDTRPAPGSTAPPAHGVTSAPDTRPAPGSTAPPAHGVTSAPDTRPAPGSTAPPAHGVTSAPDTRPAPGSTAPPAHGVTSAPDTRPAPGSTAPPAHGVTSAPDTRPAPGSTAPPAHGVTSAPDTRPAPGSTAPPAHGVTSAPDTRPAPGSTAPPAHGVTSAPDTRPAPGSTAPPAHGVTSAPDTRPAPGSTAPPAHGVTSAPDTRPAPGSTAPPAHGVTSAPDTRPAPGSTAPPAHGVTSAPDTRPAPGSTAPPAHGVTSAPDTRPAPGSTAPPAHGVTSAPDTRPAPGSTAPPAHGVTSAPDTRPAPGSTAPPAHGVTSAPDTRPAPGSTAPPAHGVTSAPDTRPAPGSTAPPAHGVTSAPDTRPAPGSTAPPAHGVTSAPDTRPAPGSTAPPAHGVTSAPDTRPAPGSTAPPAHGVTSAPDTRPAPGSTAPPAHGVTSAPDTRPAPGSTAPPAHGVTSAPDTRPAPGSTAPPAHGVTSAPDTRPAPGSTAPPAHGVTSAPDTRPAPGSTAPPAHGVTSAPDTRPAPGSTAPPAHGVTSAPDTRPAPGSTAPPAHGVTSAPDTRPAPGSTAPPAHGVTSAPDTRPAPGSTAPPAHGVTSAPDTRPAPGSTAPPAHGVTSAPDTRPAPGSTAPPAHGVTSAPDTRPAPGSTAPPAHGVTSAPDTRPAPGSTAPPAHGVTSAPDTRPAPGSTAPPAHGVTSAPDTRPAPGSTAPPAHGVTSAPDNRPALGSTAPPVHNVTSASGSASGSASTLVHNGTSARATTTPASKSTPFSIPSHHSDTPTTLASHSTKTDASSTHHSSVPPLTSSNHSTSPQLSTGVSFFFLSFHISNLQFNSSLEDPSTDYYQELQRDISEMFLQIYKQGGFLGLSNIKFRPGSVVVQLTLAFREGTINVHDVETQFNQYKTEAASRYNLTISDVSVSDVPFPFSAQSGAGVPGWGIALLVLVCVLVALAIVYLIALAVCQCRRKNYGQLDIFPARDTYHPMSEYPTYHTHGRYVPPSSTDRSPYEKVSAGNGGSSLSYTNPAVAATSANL

What is called Kd is a measure of binding affinity in units of concentration. Lower therefore signals tighter binding. For huHMFG1 wild-type scFv 22W, the Kd was determined as 199 nM. This lies in the sub-micromolar range.
